Results published in patent US20140120082A1.

How the values were obtained:
8.3 TcR = experiment: tetramer staining of 8.3 TcR-transgenic NOD CD8+ T cells, flow cytometry
human NKG2D (human) [1] = biological target: human NKG2D (human) (UniProt P26718); experiment: flow cytometry on NKL cells stained on ice with biotinylated mAb, APC-streptavidin after 16 h of culture at 37° C
human NKG2D (human) [2] = biological target: human NKG2D (human) (UniProt P26718); experiment: flow cytometry on NKL cells stained on ice with biotinylated mAb, APC-streptavidin before culture (0 h)
human NKG2D (human) [3] = biological target: human NKG2D (human) (UniProt P26718); experiment: cell-based or functional assay

Sequence of UniProt P26718 (P26718 whole entry T72A): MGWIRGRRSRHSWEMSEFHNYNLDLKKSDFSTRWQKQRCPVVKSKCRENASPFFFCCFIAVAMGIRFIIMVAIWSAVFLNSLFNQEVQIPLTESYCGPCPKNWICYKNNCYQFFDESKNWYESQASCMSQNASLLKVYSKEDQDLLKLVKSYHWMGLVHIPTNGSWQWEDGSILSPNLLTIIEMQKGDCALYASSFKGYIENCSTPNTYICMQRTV

Work on “NRP-V7/H-2K^d tetramer (from UniProt P01902 22-305) (peptide-MHC)” yielded a percent of donor CD8+ T cells tetramer positive (8.3 TcR) of over 90%.
“mouse anti-human NKG2D mAb (R&D Systems clone 149810) (antibody)” showed a mean fluorescence intensity (arbitrary units) (human NKG2D (human) [1]) of 61, a mean fluorescence intensity (arbitrary units) (human NKG2D (human) [2]) of 186 and a decrease in expression of NKG2D on the cell surface (human NKG2D (human) [3]) of 67%.
